Biological target: the molecule itself
Test: self-association; native PAGE and Western blot of E. coli lysate soluble fraction
Method: Western blot analysis of crude cell lysates under both denaturing and native conditions was performed as described previously (Janosik, 2001, supra) with some modifications. Soluble fractions of E. coli lysates containing the expressed mutant proteins were mixed with sample buffer and run on a 6% native PAGE without a stacking gel. The final composition of the sample buffer was: 50 mM Tris-HCl, pH 8.9, 1 mM DTT, 10% glycerol, 0.001% bromphenol blue. Detection of heme was performed using a previously described method that relies on heme peroxidase activity (Vargas et al., 1993, Anal. Biochem. 209(2), 323-6).

B1: human CBS double deletion mutant Δ1-70 Δ401-551 (expressed without fusion partner) (enzyme)
chain: AKSPKILPDILKKIGDTPMVRINKIGKKFGLKCELLAKCEFFNAGGSVKDRISLRMIEDAERDGTLKPGDTIIEPTSGNTGIGLALAAAVRGYRCIIVMPEKMSSEKVDVLRALGAEIVRTPTNARFDSPESHVGVAWRLKNEIPNSHILDQYRNASNPLAHYDTTADEILQQCDGKLDMLVASVGTGGTITGIARKLKEKCPGCRIIGVDPEGSILAEPEELNQTEQTTYEVEGIGYDFIPTVLDRTVVDKWFKSNDEEAFTFARMLIAQEGLLCGGSAGSTVAVAVKAAQELQEGQRCVVILPDSVRNYMTKFLSDRWMLQKGFLKEE
notes: pKK construct; E. coli lysate; Reported as a dimer; also called CBS DD
- binding result: binds

B2: human CBS deletion mutant Δ551 (enzyme)
chain: MPSETPQAEVGPTGCPHRSGPHSAKGSLEKGSPEDKEAKEPLWIRPDAPSRCTWQLGRPASESPHHHTAPAKSPKILPDILKKIGDTPMVRINKIGKKFGLKCELLAKCEFFNAGGSVKDRISLRMIEDAERDGTLKPGDTIIEPTSGNTGIGLALAAAVRGYRCIIVMPEKMSSEKVDVLRALGAEIVRTPTNARFDSPESHVGVAWRLKNEIPNSHILDQYRNASNPLAHYDTTADEILQQCDGKLDMLVASVGTGGTITGIARKLKEKCPGCRIIGVDPEGSILAEPEELNQTEQTTYEVEGIGYDFIPTVLDRTVVDKWFKSNDEEAFTFARMLIAQEGLLCGGSAGSTVAVAVKAAQELQEGQRCVVILPDSVRNYMTKFLSDRWMLQKGFLKEEDLTEKKPWWWHLRVQELGLSAPLTVLPTITCGHTIEILREKGFDQAPVVDEAGVILGMVTLGNMLSSLLAGKVQPSDQVGKVIYKQFKQIRLTDTLGRLSHILEMDHFALVVHEQIQYHSTGKSSQRQMVFGVVTAIDLLNFVAAQERDQ
notes: Lacks the C-terminal lysine; No fusion partner, E. coli lysate; Reported as a tetramer; also called pKK CBS Δ551
- binding result: binds

B3: human CBS deletion mutant Δ544-551 (enzyme)
chain: MPSETPQAEVGPTGCPHRSGPHSAKGSLEKGSPEDKEAKEPLWIRPDAPSRCTWQLGRPASESPHHHTAPAKSPKILPDILKKIGDTPMVRINKIGKKFGLKCELLAKCEFFNAGGSVKDRISLRMIEDAERDGTLKPGDTIIEPTSGNTGIGLALAAAVRGYRCIIVMPEKMSSEKVDVLRALGAEIVRTPTNARFDSPESHVGVAWRLKNEIPNSHILDQYRNASNPLAHYDTTADEILQQCDGKLDMLVASVGTGGTITGIARKLKEKCPGCRIIGVDPEGSILAEPEELNQTEQTTYEVEGIGYDFIPTVLDRTVVDKWFKSNDEEAFTFARMLIAQEGLLCGGSAGSTVAVAVKAAQELQEGQRCVVILPDSVRNYMTKFLSDRWMLQKGFLKEEDLTEKKPWWWHLRVQELGLSAPLTVLPTITCGHTIEILREKGFDQAPVVDEAGVILGMVTLGNMLSSLLAGKVQPSDQVGKVIYKQFKQIRLTDTLGRLSHILEMDHFALVVHEQIQYHSTGKSSQRQMVFGVVTAIDLLNFV
notes: No fusion partner, E. coli lysate; Reported as a tetramer
- binding result: binds

B4: human CBS deletion mutant Δ497-551 (enzyme)
chain: MPSETPQAEVGPTGCPHRSGPHSAKGSLEKGSPEDKEAKEPLWIRPDAPSRCTWQLGRPASESPHHHTAPAKSPKILPDILKKIGDTPMVRINKIGKKFGLKCELLAKCEFFNAGGSVKDRISLRMIEDAERDGTLKPGDTIIEPTSGNTGIGLALAAAVRGYRCIIVMPEKMSSEKVDVLRALGAEIVRTPTNARFDSPESHVGVAWRLKNEIPNSHILDQYRNASNPLAHYDTTADEILQQCDGKLDMLVASVGTGGTITGIARKLKEKCPGCRIIGVDPEGSILAEPEELNQTEQTTYEVEGIGYDFIPTVLDRTVVDKWFKSNDEEAFTFARMLIAQEGLLCGGSAGSTVAVAVKAAQELQEGQRCVVILPDSVRNYMTKFLSDRWMLQKGFLKEEDLTEKKPWWWHLRVQELGLSAPLTVLPTITCGHTIEILREKGFDQAPVVDEAGVILGMVTLGNMLSSLLAGKVQPSDQVGKVIYKQFKQIRLTDTL
notes: No fusion partner, E. coli lysate; Reported as a dimer
- binding result: binds

B5: human CBS deletion mutant Δ489-551 (enzyme)
chain: MPSETPQAEVGPTGCPHRSGPHSAKGSLEKGSPEDKEAKEPLWIRPDAPSRCTWQLGRPASESPHHHTAPAKSPKILPDILKKIGDTPMVRINKIGKKFGLKCELLAKCEFFNAGGSVKDRISLRMIEDAERDGTLKPGDTIIEPTSGNTGIGLALAAAVRGYRCIIVMPEKMSSEKVDVLRALGAEIVRTPTNARFDSPESHVGVAWRLKNEIPNSHILDQYRNASNPLAHYDTTADEILQQCDGKLDMLVASVGTGGTITGIARKLKEKCPGCRIIGVDPEGSILAEPEELNQTEQTTYEVEGIGYDFIPTVLDRTVVDKWFKSNDEEAFTFARMLIAQEGLLCGGSAGSTVAVAVKAAQELQEGQRCVVILPDSVRNYMTKFLSDRWMLQKGFLKEEDLTEKKPWWWHLRVQELGLSAPLTVLPTITCGHTIEILREKGFDQAPVVDEAGVILGMVTLGNMLSSLLAGKVQPSDQVGKVIYKQFK
notes: as for B4
- binding result: binds

B6: human CBS deletion mutant Δ442-551 (enzyme)
chain: MPSETPQAEVGPTGCPHRSGPHSAKGSLEKGSPEDKEAKEPLWIRPDAPSRCTWQLGRPASESPHHHTAPAKSPKILPDILKKIGDTPMVRINKIGKKFGLKCELLAKCEFFNAGGSVKDRISLRMIEDAERDGTLKPGDTIIEPTSGNTGIGLALAAAVRGYRCIIVMPEKMSSEKVDVLRALGAEIVRTPTNARFDSPESHVGVAWRLKNEIPNSHILDQYRNASNPLAHYDTTADEILQQCDGKLDMLVASVGTGGTITGIARKLKEKCPGCRIIGVDPEGSILAEPEELNQTEQTTYEVEGIGYDFIPTVLDRTVVDKWFKSNDEEAFTFARMLIAQEGLLCGGSAGSTVAVAVKAAQELQEGQRCVVILPDSVRNYMTKFLSDRWMLQKGFLKEEDLTEKKPWWWHLRVQELGLSAPLTVLPTITCGHTIEILREK
notes: as for B4
- binding result: binds

B7: human CBS deletion mutant Δ414-551 (enzyme)
chain: MPSETPQAEVGPTGCPHRSGPHSAKGSLEKGSPEDKEAKEPLWIRPDAPSRCTWQLGRPASESPHHHTAPAKSPKILPDILKKIGDTPMVRINKIGKKFGLKCELLAKCEFFNAGGSVKDRISLRMIEDAERDGTLKPGDTIIEPTSGNTGIGLALAAAVRGYRCIIVMPEKMSSEKVDVLRALGAEIVRTPTNARFDSPESHVGVAWRLKNEIPNSHILDQYRNASNPLAHYDTTADEILQQCDGKLDMLVASVGTGGTITGIARKLKEKCPGCRIIGVDPEGSILAEPEELNQTEQTTYEVEGIGYDFIPTVLDRTVVDKWFKSNDEEAFTFARMLIAQEGLLCGGSAGSTVAVAVKAAQELQEGQRCVVILPDSVRNYMTKFLSDRWMLQKGFLKEEDLTEKKPWWWHLR
notes: Lacks the entire C-terminal regulatory region; No fusion partner, E. coli lysate; Reported as a dimer
- binding result: binds

B8: human CBS deletion mutant Δ1-39 (enzyme)
chain: EPLWIRPDAPSRCTWQLGRPASESPHHHTAPAKSPKILPDILKKIGDTPMVRINKIGKKFGLKCELLAKCEFFNAGGSVKDRISLRMIEDAERDGTLKPGDTIIEPTSGNTGIGLALAAAVRGYRCIIVMPEKMSSEKVDVLRALGAEIVRTPTNARFDSPESHVGVAWRLKNEIPNSHILDQYRNASNPLAHYDTTADEILQQCDGKLDMLVASVGTGGTITGIARKLKEKCPGCRIIGVDPEGSILAEPEELNQTEQTTYEVEGIGYDFIPTVLDRTVVDKWFKSNDEEAFTFARMLIAQEGLLCGGSAGSTVAVAVKAAQELQEGQRCVVILPDSVRNYMTKFLSDRWMLQKGFLKEEDLTEKKPWWWHLRVQELGLSAPLTVLPTITCGHTIEILREKGFDQAPVVDEAGVILGMVTLGNMLSSLLAGKVQPSDQVGKVIYKQFKQIRLTDTLGRLSHILEMDHFALVVHEQIQYHSTGKSSQRQMVFGVVTAIDLLNFVAAQERDQK
notes: The sense primer brings in an Nco I site at the 5' end; No fusion partner, E. coli lysate; Reported as a tetramer; also called pKK CBS Δ1-39
- binding result: binds

B9: human CBS deletion mutant Δ1-70 (enzyme)
chain: AKSPKILPDILKKIGDTPMVRINKIGKKFGLKCELLAKCEFFNAGGSVKDRISLRMIEDAERDGTLKPGDTIIEPTSGNTGIGLALAAAVRGYRCIIVMPEKMSSEKVDVLRALGAEIVRTPTNARFDSPESHVGVAWRLKNEIPNSHILDQYRNASNPLAHYDTTADEILQQCDGKLDMLVASVGTGGTITGIARKLKEKCPGCRIIGVDPEGSILAEPEELNQTEQTTYEVEGIGYDFIPTVLDRTVVDKWFKSNDEEAFTFARMLIAQEGLLCGGSAGSTVAVAVKAAQELQEGQRCVVILPDSVRNYMTKFLSDRWMLQKGFLKEEDLTEKKPWWWHLRVQELGLSAPLTVLPTITCGHTIEILREKGFDQAPVVDEAGVILGMVTLGNMLSSLLAGKVQPSDQVGKVIYKQFKQIRLTDTLGRLSHILEMDHFALVVHEQIQYHSTGKSSQRQMVFGVVTAIDLLNFVAAQERDQK
notes: The sense primer brings in an Nco I site at the 5' end; No fusion partner, E. coli lysate; Reported as a tetramer; also called pKK CBS Δ1-70
- binding result: binds

Source: US20140023630A1 (REGENTS OF THE UNIVERSITY OF COLORADO A BODY CORPORATE, published 2014)
